Source: the Immune Epitope Database (IEDB)
One block for each sequence: values may come before it.

How the values were obtained:
[1] = target: HLA-C*14:02; assay: IEDB peptide-MHC binding, purified MHC/direct/fluorescence; filed as Kd, often an IC50 or EC50 that approximates it; ≥ and ≤ were set here for values at or beyond the usual limits of such assays; conditions: source organism: Mycobacterium tuberculosis str. Haarlem
[2] = target: HLA-A*02:19; assay: IEDB peptide-MHC binding, purified MHC/competitive/fluorescence; filed as Kd, often an IC50 or EC50 that approximates it; ≥ and ≤ were set here for values at or beyond the usual limits of such assays
[3] = target: HLA-B*46:01; assay: as above; conditions: source organism: Bacillus cereus ATCC 4342
[4] = target: HLA-A*02:03; assay: as above
[5] = target: HLA-B*15:01; assay: as above; conditions: source organism: Bacillus cereus ATCC 4342
[6] = target: HLA-B*39:01; assay: as above
[7] = target: HLA-B*57:01; assay: as above
[8] = target: HLA-B*27:03; assay: as above
[9] = target: HLA-A*26:01; assay: as above
[10] = target: HLA-B*51:01; assay: as above
[11] = target: HLA-A*03:01; assay: as above
[12] = target: HLA-A*02:01; assay: as above
[13] = target: HLA-A*24:03; assay: as above
[14] = target: HLA-B*18:01; assay: as above
[15] = target: HLA-B*15:17; assay: as above; conditions: source organism: Bacillus cereus ATCC 4342
[16] = target: HLA-A*02:16; assay: as above
[17] = target: HLA-A*02:12; assay: as above
[18] = target: HLA-A*02:11; assay: as above
[19] = target: HLA-A*69:01; assay: as above; conditions: source organism: Giardia lamblia ATCC 50803
[20] = target: HLA-A*68:02; assay: as above; conditions: source organism: Giardia lamblia ATCC 50803
[21] = target: HLA-A*01:01; assay: as above
[22] = target: HLA-B*58:01; assay: as above
[23] = target: HLA-B*15:01; assay: IEDB peptide-MHC binding, purified MHC/direct/fluorescence; filed as Kd, often an IC50 or EC50 that approximates it; ≥ and ≤ were set here for values at or beyond the usual limits of such assays; conditions: source organism: Vibrio parahaemolyticus AQ3810
[24] = target: HLA-B*27:03; assay: as above; conditions: source organism: Vibrio parahaemolyticus AQ3810
[25] = target: HLA-A*26:01; assay: as above; conditions: source organism: Vibrio parahaemolyticus AQ3810
[26] = target: HLA-B*51:01; assay: as above; conditions: source organism: Vibrio parahaemolyticus AQ3810
[27] = target: HLA-A*29:02; assay: IEDB peptide-MHC binding, purified MHC/competitive/fluorescence; filed as Kd, often an IC50 or EC50 that approximates it; ≥ and ≤ were set here for values at or beyond the usual limits of such assays; conditions: source organism: Homo sapiens
[28] = target: HLA-C*06:02; assay: IEDB peptide-MHC binding, purified MHC/direct/fluorescence; filed as Kd, often an IC50 or EC50 that approximates it; ≥ and ≤ were set here for values at or beyond the usual limits of such assays; conditions: source organism: Homo sapiens
[29] = target: HLA-B*15:09; assay: as above
[30] = source organism: Bacillus cereus ATCC 4342
[31] = source organism: Giardia lamblia ATCC 50803
[32] = source organism: Escherichia coli O139:H28 str. E24377A
[33] = source organism: Francisella tularensis subsp. tularensis FSC198
[34] = source organism: Yersinia pestis Nepal516

Sequence: AAIAVGVAL
Kd [1]: ≥ 20 µM

Sequence: GLFWGGIWY
Kd [2, 30]: ≥ 20 µM | Kd [3]: ≥ 20 µM | Kd [4, 30]: ≥ 20 µM | Kd [5]: ≥ 20 µM | Kd [6, 30]: ≥ 20 µM | Kd [7, 30]: ≥ 20000 nM | Kd [8, 30]: ≥ 20 µM | Kd [9, 30]: ≥ 20 µM | Kd [10, 30]: ≥ 20 µM | Kd [11, 30]: ≥ 20 µM | Kd [12, 30]: ≥ 20000 nM | Kd [13, 30]: ≥ 20 µM | Kd [14, 30]: ≥ 20 µM | Kd [15]: ≥ 20 µM | Kd [16, 30]: 5.63 µM | Kd [17, 30]: ≥ 20 µM | Kd [18, 30]: 834 nM

Sequence: IANTTDHFF
Kd [2, 31]: ≥ 20 µM | Kd [4, 31]: ≥ 20 µM | Kd [6, 31]: ≥ 20 µM | Kd [7, 31]: 159 nM | Kd [8, 31]: ≥ 20 µM | Kd [9, 31]: ≥ 20 µM | Kd [10, 31]: ≥ 20 µM | Kd [11, 31]: ≥ 20 µM | Kd [12, 31]: ≥ 20000 nM | Kd [13, 31]: ≥ 20 µM | Kd [19]: ≥ 20 µM | Kd [14, 31]: ≥ 20 µM | Kd [20]: ≥ 20 µM | Kd [16, 31]: ≥ 20 µM | Kd [17, 31]: ≥ 20 µM

Sequence: ISKANWMTY
Kd [2, 31]: ≥ 20 µM | Kd [4, 31]: ≥ 20 µM | Kd [6, 31]: ≥ 20 µM | Kd [7, 31]: 83.7 nM | Kd [8, 31]: ≥ 20 µM | Kd [9, 31]: ≥ 20 µM | Kd [10, 31]: ≥ 20 µM | Kd [11, 31]: ≥ 20 µM | Kd [12, 31]: ≥ 20000 nM | Kd [13, 31]: ≥ 20 µM | Kd [19]: ≥ 20 µM | Kd [14, 31]: ≥ 20 µM | Kd [20]: ≥ 20 µM | Kd [16, 31]: ≥ 20 µM | Kd [17, 31]: ≥ 20 µM | Kd [18, 31]: ≥ 20000 nM

Kd [21, 32]: ≥ 20 µM | Kd [12, 32]: 72.5 nM | Kd [22, 32]: 672 nM
Sequence: ITAALAWSL

Sequence: MAYGFFNNI
Kd [23]: ≥ 20 µM | Kd [24]: ≥ 20 µM | Kd [25]: ≥ 20 µM | Kd [26]: 30 nM

Kd ([21]; source organism: Homo sapiens): ≥ 20 µM | Kd [27]: 109 nM | Kd [28]: 4 nM
Sequence: NYIDKVRFL

Sequence: TMDVYVMIL
Kd ([6]; source organism: Vibrio cholerae MAK 757): 0.0123 µM | Kd ([29]; source organism: Vibrio cholerae V52): 384 nM

Sequence: TVIEGLDKL
Kd [12, 33]: 88.4 nM | Kd [16, 33]: 0.195 µM

Sequence: YDAHHRFIL
Kd ([29]; source organism: Listeria monocytogenes serotype 4b str. H7858): ≥ 20000 nM

Sequence: YSSPHLLRY
Kd [21, 34]: 0.0103 µM | Kd [11, 34]: 0.258 µM | Kd [22, 34]: 4.5 nM
